For orientation: Kd means the free concentration of one partner at which half of the binding sites on the other are occupied at equilibrium, for simple one-to-one binding.

Here are results for one molecule from patent publication US8034572B2, “Receptor for GDNF family ligands” (priority 2006, dated 2011).

The nature of test [1]: SPR (IAsys): heparin interaction with GFLs cuvette. In kind it is binding. The conditions noted are these: GFLs cuvette. The procedure: The affinities of GFLs for heparin and heparin-like molecules (e.g. syndecan-3) were determined by plasmon surface resonance using the IAsys system (Affinity Sensors, Cambridge, UK). Planar aminosilane cuvettes (Affinity Sensors) were used for protein coupling to avoid problems with mass transport, which occur frequently with matrix surfaces. In the initial approach, heparin-BSA was immobilized to the cuvette surface using the manufacturer's instructions and different ligand concentrations were used to determine association (ka) and dissociation (kdis) rates using the IAsys Fastfit software. The dissociation constant Kd was determined from the binding dynamics as […], or from equilibrium response (R) using a simple Langmuir fit: R=(Rmax*C)/(Kd+C), where C is the ligand concentration. […] The dissociation constants were determined from binding dynamics and equilibrium response. The same cuvettes were used to test binding of heparan sulfate proteoglycan syndecan-3, which was purified as an ectodomain from early postnatal rat brains by HB-GAM affinity chromatography (Raulo et al., 1994).
Binding was analyzed using IAsys cuvettes with immobilized heparin-BSA or GFLs. The dissociation constant Kd was determined from dynamics of association and dissociation (Kd=kdis/ka), or from equilibrium response R (R=(Rmax*C)/(Kd+C), where C is ligand concentration).

For test [2], the system named is E15 mouse cortical neurons. The experiment in a line: Cortical neurons migration assay (transfilter). It counts as cell-based. Conditions: 16 hours. The procedure: Cortical lobes from E15 mouse brains were dissected under a stereomicroscope and dissociated using a 20 G needle and a syringe in DMEM containing 10% FCS. The cortical preparation was spun down at 1000 rpm for 5 min and the pellet was washed with culture medium containing serum. The pellet was carefully resuspended and the preparation was allowed to sediment for five more minutes before the cleared supernatant was collected. The cells in the supernatant were allowed to recover in serum-containing DMEM for 30-60 min. Recovered cells were washed once with the assay medium (DMEM with 10 mg/ml BSA, L-glutamine and antibiotics) and resuspended in the same medium.
Transwell filters (Costar) with 12-μm pore size or polycarbonate filters saturated with 100 μg/ml poly-L-lysine were coated with GDNF or ΔN-GDNF in 1 μM, 10 μM and 100 μM concentrations overnight at 4° C. and equilibrated with assay medium 30 min in +37° C. incubator prior to use. The spontaneous and random migratory activity of neural cells was controlled with uncoated filters.
Embryonic cortical cells were plated on the filters at 150000 cells per filter and left to migrate for 16 hours. […] The number of cells that had migrated to the coated surface of the filters was calculated using the inverted light microscope Olympus IX71.

B1: GDNF: Glial cell line-derived neurotrophic factor, secreted growth factor, GDNF family ligand (protein)
chain: SPDKQMAVLPRRERNRQAAAANPENSRGKGRRGQRGKNRGCVLTAIHLNVTDLGLGYETKEELIFRYCSGSCDAAETTYDKILKNLSRNRRLVSDKVGQACCRPIAFDDDLSFLDDNLVYHILRKHSAKRCGCI
For the molecule B1, in test [1] (heparin in solution), the “ka (×10^−5) (M^−1s^−1)” value is given as 15 (×10^−5) M^−1s^−1 and the “kdis” value came to 0.034 s⁻¹. Also, the “Kd = kdis/ka” value in test [1] (from dynamics) was found to be 0.0227 ± 0.0027 µM. Also, the Kd in test [1] (from equilibrium response, read-out: Kd (equilibrium)) worked out at 0.0123 ± 0.0034 µM. Moreover, in test [2] (filters coated with GDNF), the “migration of syndecan-3-deficient embryonic cortical neurons” value is given as “strongly impaired”. Further, in test [2] (filters coated with protein), the “migration of wild type embryonic cortical cells” value was “stimulated massive migration”.
